Biological target: heat shock protein 70 (HSP70) (human (endogenous in PDAC cell lines and CAFs)) (UniProt P0DMV8)
Chain of UniProt P0DMV8 (P0DMV8 whole entry): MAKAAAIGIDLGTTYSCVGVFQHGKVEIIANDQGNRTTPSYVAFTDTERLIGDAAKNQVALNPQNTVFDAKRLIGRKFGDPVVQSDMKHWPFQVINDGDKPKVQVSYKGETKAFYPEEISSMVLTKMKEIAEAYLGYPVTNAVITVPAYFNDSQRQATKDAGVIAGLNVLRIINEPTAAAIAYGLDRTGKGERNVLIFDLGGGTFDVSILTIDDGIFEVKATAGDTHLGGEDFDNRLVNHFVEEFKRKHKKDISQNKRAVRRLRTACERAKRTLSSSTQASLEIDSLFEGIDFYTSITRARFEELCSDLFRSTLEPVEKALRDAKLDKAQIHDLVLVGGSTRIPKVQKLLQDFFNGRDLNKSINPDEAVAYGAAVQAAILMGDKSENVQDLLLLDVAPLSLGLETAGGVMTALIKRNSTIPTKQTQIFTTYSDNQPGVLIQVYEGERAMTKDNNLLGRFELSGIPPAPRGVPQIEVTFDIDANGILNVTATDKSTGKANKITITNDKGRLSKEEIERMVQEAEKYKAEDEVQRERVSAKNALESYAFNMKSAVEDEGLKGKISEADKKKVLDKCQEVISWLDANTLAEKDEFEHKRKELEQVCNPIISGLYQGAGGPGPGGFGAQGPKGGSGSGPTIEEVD

% rescue by recombinant Pn 2-1 in GEM-treated AsPC1 cells, CTRL siRNA group (counteracted by HSPA1A knockdown): 11.2%
% rescue by recombinant Pn 2-1 in GEM-treated BxPC3 cells, CTRL siRNA group (counteracted by HSPA1A knockdown): 5.4%
% rescue by recombinant Pn 2-1 in GEM-treated Panc1 cells, CTRL siRNA group (counteracted by HSPA1A knockdown): 86.3%
Substance: His tagged-recombinant Pn-ASV with exon 21 (Pn 2-1) (from UniProt Q15063-5 22-809) (natural protein)
